Results reported in IntAct's records for PubMed 20937695.

B1: "Na(+)/H(+) exchange regulatory cofactor NHE-RF1" (Homo sapiens), O14745 (parent)
chain: MSADAAAGAPLPRLCCLEKGPNGYGFHLHGEKGKLGQYIRLVEPGSPAEKAGLLAGDRLVEVNGENVEKETHQQVVSRIRAALNAVRLLVVDPETDEQLQKLGVQVREELLRAQEAPGQAEPPAAAEVQGAGNENEPREADKSHPEQRELRPRLCTMKKGPSGYGFNLHSDKSKPGQFIRSVDPDSPAEASGLRAQDRIVEVNGVCMEGKQHGDVVSAIRAGGDETKLLVVDRETDEFFKKCRVIPSQEHLNGPLPVPFTNGEIQKENSREALAEAALESPRPALVRSASSDTSEELNSQDSPPKQDSTAPSSTSSSDPILDFNISLAMAKERAHQKRSSKRAPQMDWSKKNELFSNL
B2: "Na(+)/H(+) exchange regulatory cofactor NHE-RF1" (Homo sapiens), O14745 (parent)
chain: B1 chain
partner: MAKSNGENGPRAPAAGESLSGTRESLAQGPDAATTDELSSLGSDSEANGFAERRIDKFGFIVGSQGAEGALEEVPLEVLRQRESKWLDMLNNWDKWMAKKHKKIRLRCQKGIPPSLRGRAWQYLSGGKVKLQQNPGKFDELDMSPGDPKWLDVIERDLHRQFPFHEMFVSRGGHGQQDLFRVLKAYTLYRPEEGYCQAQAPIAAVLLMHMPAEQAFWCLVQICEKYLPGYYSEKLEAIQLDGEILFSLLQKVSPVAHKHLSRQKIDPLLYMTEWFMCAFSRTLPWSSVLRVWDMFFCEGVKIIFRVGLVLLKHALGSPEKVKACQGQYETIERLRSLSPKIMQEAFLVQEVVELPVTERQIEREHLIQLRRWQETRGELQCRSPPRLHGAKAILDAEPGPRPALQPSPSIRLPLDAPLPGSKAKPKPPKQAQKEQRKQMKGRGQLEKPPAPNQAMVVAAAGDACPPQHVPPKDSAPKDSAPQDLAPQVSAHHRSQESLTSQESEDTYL

Variants of: B1
Details: with ezri_human EZR

**Q.** How did the “effect of a mutation on the interaction” value turn out when MSADAAAGAPLPRLCCLEKGPNGYGFHLHGEKGKLGQYIRLVEPGSPAEKAGLLAGDRLVEVNGENVEKETHQQVVSRIRAALNAVRLLVVDPETDEQLQKLGVQVREELLRAQEAPGQAEPPAAAEVQGAGNENEPREADKSHPEQRELRPRLCTMKKGPAGYGFNLHSDKSKPGQFIRSVDPDSPAEASGLRAQDRIVEVNGVCMEGKQHGDVVSAIRAGGDETKLLVVDRETDEFFKKCRVIPSQEHLNGPLPVPFTNGEIQKENSREALAEAALESPRPALVRSASSDTSEELNSQDSPPKQDSTAPSSTSSSDPILDFNISLAMAKERAHQKRAAKRAPQMDWSKKNELFSNL [S162A;S339A;S340A] was run?
**A.** decreasing interaction strength

**Q.** With MSADAAAGAPLPRLCCLEKGPNGYGFHLHGEKGKLGQYIRLVEPGSPAEKAGLLAGDRLVEVNGENVEKETHQQVVSRIRAALNAVRLLVVDPETDEQLQKLGVQVREELLRAQEAPGQAEPPAAAEVQGAGNENEPREADKSHPEQRELRPRLCTMKKGPDGYGFNLHSDKSKPGQFIRSVDPDSPAEASGLRAQDRIVEVNGVCMEGKQHGDVVSAIRAGGDETKLLVVDRETDEFFKKCRVIPSQEHLNGPLPVPFTNGEIQKENSREALAEAALESPRPALVRSASSDTSEELNSQDSPPKQDSTAPSSTSSSDPILDFNISLAMAKERAHQKRDDKRAPQMDWSKKNELFSNL [S162D;S339D;S340D] as the variant, how does the “effect of a mutation on the interaction” value read?
**A.** decreasing interaction strength

**Q.** For MSADAAAGAPLPRLCCLEKGPNGYGFHLHGEKGKLGQYIRLVEPGSPAEKAGLLAGDRLVEVNGENVEKETHQQVVSRIRAALNAVRLLVVDPETDEQLQKLGVQVREELLRAQEAPGQAEPPAAAEVQGAGNENEPREADKSHPEQRELRPRLCTMKKGPSGYGFNLHSDKSKPGQFIRSVDPDSPAEASGLRAQDRIVEVNGVCMEGKQHGDVVSAIRAGGDETKLLVVDRETDEFFKKCRVIPSQEHLNGPLPVPFTNGEIQKENSREALAEAALEDPRPALVRSASSDTSEELNSQDDPPKQDSTAPSSTSSSDPILDFNISLAMAKERAHQKRSSKRAPQMDWSKKNELFSNL [S280D;S302D], which “effect of a mutation on the interaction” value is on record?
**A.** decreasing interaction strength

**Q.** MSADAAAGAPLPRLCCLEKGPNGYGFHLHGEKGKLGQYIRLVEPGSPAEKAGLLAGDRLVEVNGENVEKETHQQVVSRIRAALNAVRLLVVDPETDEQLQKLGVQVREELLRAQEAPGQAEPPAAAEVQGAGNENEPREADKSHPEQRELRPRLCTMKKGPSGYGFNLHSDKSKPGQFIRSVDPDSPAEASGLRAQDRIVEVNGVCMEGKQHGDVVSAIRAGGDETKLLVVDRETDEFFKKCRVIPSQEHLNGPLPVPFTNGEIQKENSREALAEAALEAPRPALVRSASSDTSEELNSQDAPPKQDSTAPSSTSSSDPILDFNISLAMAKERAHQKRSSKRAPQMDWSKKNELFSNL [S280A;S302A] was tested. Which “effect of a mutation on the interaction” value did it give?
**A.** decreasing interaction strength

Variants of: B1
Details: with ezri_human EZR
Remark: another data set of the same source

**Q.** With MSADAAAGAPLPRLCCLEKGPNGYGFHLHGEKGKLGQYIRLVEPGSPAEKAGLLAGDRLVEVNGENVEKETHQQVVSRIRAALNAVRLLVVDPETDEQLQKLGVQVREELLRAQEAPGQAEPPAAAEVQGAGNENEPREADKSHPEQRELRPRLCTMKKGPSGYGFNLHSDKSKPGQFIRSVDPDSPAEASGLRAQDRIVEVNGVCMEGKQHGDVVSAIRAGGDETKLLVVDRETDEFFKKCRVIPSQEHLNGPLPVPFTNGEIQKENSREALAEAALESPRPALVRSASSDTSEELNSQDSPPKQDSTAPSSTSSSDPILDFNISLAMAKERAHQKRSSKRAPQMDWSKKNELASNL [F355A] as the variant, how does the “effect of a mutation on the interaction” value read?
**A.** with no effect

**Q.** MSADAAAGAPLPRLCCLEKGPNGYGFHLHGEKGKLGQYIRLVEPGSPAEKAGLLAGDRLVEVNGENVEKETHQQVVSRIRAALNAVRLLVVDPETDEQLQKLGVQVREELLRAQEAPGQAEPPAAAEVQGAGNENEPREADKSHPEQRELRPRLCTMKKGPSGYGFNLHSDKSKPGQFIRSVDPDSPAEASGLRAQDRIVEVNGVCMEGKQHGDVVSAIRAGGDETKLLVVDRETDEFFKKCRVIPSQEHLNGPLPVPFTNGEIQKENSREALAEAALESPRPALVRSASSDTSEELNSQDSPPKQDSTAPSSTSSSDPILDFNISLAMAKERAHQKRSSKRAPQMDWSKKNELRSNL [F355R] was tested. Which “effect of a mutation on the interaction” value did it give?
**A.** disrupting interaction strength

**Q.** Which “effect of a mutation on the interaction” value does the source give for MSADAAAGAPLPRLCCLEKGPNGYGFHLHGEKGKLGQYIRLVEPGSPAEKAGLLAGDRLVEVNGENVEKETHQQVVSRIRAALNAVRLLVVDPETDEQLQKLGVQVREELLRAQEAPGQAEPPAAAEVQGAGNENEPREADKSHPEQRELRPRLCTMKKGPSGYGFNLHSDKSKPGQFIRSVDPDSPAEASGLRAQDRIVEVNGVCMEGKQHGDVVSAIRAGGDETKLLVVDRETDEFFKKCRVIPSQEHLNGPLPVPFTNGEIQKENSREALAEAALESPRPALVRSASSDTSEELNSQDSPPKQDSTAPSSTSSSDPILDFNISLAMAKERAHQKRSSKRAPQADASKKNELFSNL [M346A;W348A] here?
**A.** decreasing interaction strength

Variants of: B2
Details: with tb10a_human TBC1D10A

**Q.** With MSADAAAGAPLPRLCCLEKGPNGYGFHLHGEKGKLGQYIRLVEPGSPAEKAGLLAGDRLVEVNGENVEKETHQQVVSRIRAALNAVRLLVVDPETDEQLQKLGVQVREELLRAQEAPGQAEPPAAAEVQGAGNENEPREADKSHPEQRELRPRLCTMKKGPSGYGFNLHSDKSKPGQFIRSVDPDSPAEASGLRAQDRIVEVNGVCMEGKQHGDVVSAIRAGGDETKLLVVDRETDEFFKKCRVIPSQEHLNGPLPVPFTNGEIQKENSREALAEAALEDPRPALVRSASSDTSEELNSQDDPPKQDSTAPSSTSSSDPILDFNISLAMAKERAHQKRSSKRAPQMDWSKKNELFSNL [S280D;S302D] as the variant, how does the “effect of a mutation on the interaction” value read?
**A.** with no effect

**Q.** With MSADAAAGAPLPRLCCLEKGPNGYGFHLHGEKGKLGQYIRLVEPGSPAEKAGLLAGDRLVEVNGENVEKETHQQVVSRIRAALNAVRLLVVDPETDEQLQKLGVQVREELLRAQEAPGQAEPPAAAEVQGAGNENEPREADKSHPEQRELRPRLCTMKKGPAGYGFNLHSDKSKPGQFIRSVDPDSPAEASGLRAQDRIVEVNGVCMEGKQHGDVVSAIRAGGDETKLLVVDRETDEFFKKCRVIPSQEHLNGPLPVPFTNGEIQKENSREALAEAALESPRPALVRSASSDTSEELNSQDSPPKQDSTAPSSTSSSDPILDFNISLAMAKERAHQKRAAKRAPQMDWSKKNELFSNL [S162A;S339A;S340A] as the variant, how does the “effect of a mutation on the interaction” value read?
**A.** with no effect

**Q.** Which “effect of a mutation on the interaction” value does the source give for MSADAAAGAPLPRLCCLEKGPNGYGFHLHGEKGKLGQYIRLVEPGSPAEKAGLLAGDRLVEVNGENVEKETHQQVVSRIRAALNAVRLLVVDPETDEQLQKLGVQVREELLRAQEAPGQAEPPAAAEVQGAGNENEPREADKSHPEQRELRPRLCTMKKGPSGYGFNLHSDKSKPGQFIRSVDPDSPAEASGLRAQDRIVEVNGVCMEGKQHGDVVSAIRAGGDETKLLVVDRETDEFFKKCRVIPSQEHLNGPLPVPFTNGEIQKENSREALAEAALEAPRPALVRSASSDTSEELNSQDAPPKQDSTAPSSTSSSDPILDFNISLAMAKERAHQKRSSKRAPQMDWSKKNELFSNL [S280A;S302A] here?
**A.** with no effect

**Q.** With MSADAAAGAPLPRLCCLEKGPNGYGFHLHGEKGKLGQYIRLVEPGSPAEKAGLLAGDRLVEVNGENVEKETHQQVVSRIRAALNAVRLLVVDPETDEQLQKLGVQVREELLRAQEAPGQAEPPAAAEVQGAGNENEPREADKSHPEQRELRPRLCTMKKGPDGYGFNLHSDKSKPGQFIRSVDPDSPAEASGLRAQDRIVEVNGVCMEGKQHGDVVSAIRAGGDETKLLVVDRETDEFFKKCRVIPSQEHLNGPLPVPFTNGEIQKENSREALAEAALESPRPALVRSASSDTSEELNSQDSPPKQDSTAPSSTSSSDPILDFNISLAMAKERAHQKRDDKRAPQMDWSKKNELFSNL [S162D;S339D;S340D] as the variant, how does the “effect of a mutation on the interaction” value read?
**A.** with no effect
